Laboratory results from paper doi:10.1101/2023.03.30.534840.
“And” between values parts separate entries of the source, which are not always exact repeats. Identical values can stand only once.

Key:
[1] = biological target: His-MeSufC (expressed alone in E. coli) (Monocercomonoides exilis); test: SEC
[2] = biological target: MeSufBC complex (His-MeSufB with MeSufC-HA) (Monocercomonoides exilis); test: SEC
[3] = biological target: MeSufBC complex (His-MeSufB with MeSufC-HA) (Monocercomonoides exilis); test: mass photometry
[4] = biological target: MeSufBC complex (His-MeSufB with MeSufC-HA) (Monocercomonoides exilis); test: mass photometry; remark: listed apart in the source
[5] = biological target: MeSufBC complex (His-MeSufB with MeSufC-HA) (Monocercomonoides exilis); test: SEC; remark: listed apart in the source
[6] = biological target: His-MeSufB (Monocercomonoides exilis); test: mass photometry
[7] = biological target: T25-MeSufB (Monocercomonoides exilis); test: two-hybrid
[8] = biological target: T25-MeSufC (Monocercomonoides exilis); test: two-hybrid

Q: For “His-MeSufC (expressed alone in E. coli) (enzyme)”, which stoichiometry N [1] is on record?
A: 2

Q: How did the stoichiometry N (MeSufBC units) [2] turn out when “MeSufBC complex (His-MeSufB with MeSufC-HA)” was run?
A: 4

Q: And the stoichiometry N (MeSufBC units) [3]?
A: 2

Q: What about the stoichiometry N (MeSufBC units) [4] of the same molecule?
A: 2

Q: And the stoichiometry N (MeSufBC units) [5]?
A: 2 and 4

Q: With MeSufC-HA (enzyme) as the molecule, how does the stoichiometry N (MeSufC per MeSufB) [6] read?
A: 1

Q: For MeSufC-T18 (natural protein), which β-galactosidase activity (BACTH) [7] is on record?
A: 670 Miller units

B1: EcSufB-T18 (natural protein)
chain: MSRNTEATDDVKTWTGGPLNYKEGFFTQLATDELAKGINEEVVRAISAKRNEPEWMLEFRLNAYRAWLEMEEPHWLKAHYDKLNYQDYSYYSAPSCGNCDDTCASEPGAVQQTGANAFLSKEVEAAFEQLGVPVREGKEVAVDAIFDSVSVATTYREKLAEQGIIFCSFGEAIHDHPELVRKYLGTVVPGNDNFFAALNAAVASDGTFIYVPKGVRCPMELSTYFRINAEKTGQFERTILVADEDSYVSYIEGCSAPVRDSYQLHAAVVEVIIHKNAEVKYSTVQNWFPGDNNTGGILNFVTKRALCEGENSKMSWTQSETGSAITWKYPSCILRGDNSIGEFYSVALTSGHQQADTGTKMIHIGKNTKSTIISKGISAGHSQNSYRGLVKIMPTATNARNFTQCDSMLIGANCGAHTFPYVECRNNSAQLEHEATTSRIGEDQLFYCLQRGISEEDAISMIVNGFCKDVFSELPLEFAVEAQKLLAISLEHSVG
Q: B1 was tested. Which β-galactosidase activity (BACTH) [8] did it give?
A: 556 Miller units

B2: EcSufC-T18 (natural protein)
chain: MLSIKDLHVSVEDKAILRGLSLDVHPGEVHAIMGPNGSGKSTLSATLAGREDYEVTGGTVEFKGKDLLALSPEDRAGEGIFMAFQYPVEIPGVSNQFFLQTALNAVRSYRGQETLDRFDFQDLMEEKIALLKMPEDLLTRSVNVGFSGGEKKRNDILQMAVLEPELCILDESDSGLDIDALKVVADGVNSLRDGKRSFIIVTHYQRILDYIKPDYVHVLYQGRIVKSGDFTLVKQLEEQGYGWLTEQQ
Q: How did the β-galactosidase activity (BACTH) [7] turn out when B2 was run?
A: 1040 Miller units
